# From US8642834B2, “Methods for the identification of agents that inhibit mesenchymal-like tumor cells or their formation” (OSI Pharmaceuticals, LLC, priority 2009, dated 2014)
# System: CFPAC-1 cells
# Test: Induction of EMT by growth factors and cytokines, E-cadherin and vimentin immunoblotting
# Assay type: cell-based, human
# Details: CFPAC-1 cells treated 7 days with ligand
# Method: The CFPAC1 cell line was cultured in DMEM media (Gibco #11960) supplemented with 10% FBS (Sigma), 2 mM L Glutamine (Gibco), at 37° C., 5% CO2. For 7 day treatments, cells were seeded on tissue culture plastic in complete growth media and allowed to attach overnight at cell densities that would provide approximately 60-80% confluence at end of experiment. Ligand and/or inhibitor was added the following day (Day 0) in complete growth media and incubated at 37° C., 5% CO2. Ligand source and concentrations used are as follows: [1] From R&D systems, SDF-1α (stromal derived factor-1 alpha) at 100 ng/ml, TRANCE (TNF-related activation induced cytokine) at 50 ng/ml, FGF1 (fibroblast growth factor acidic) at 10 ng/ml, FGF2 (fibroblast growth factor basic) at 10 ng/ml, BMP4 (bone morphogenetic protein 4) at 100 ng/ml, BMP7 (bone morphogenetic protein 7) at 100 ng/ml, IGF2 (insulin-like growth factor 2) at 100 ng/ml, OSM (Oncostatin M) at 100 ng/ml, NRG1 (Neuregulin-1) at 50 ng/ml, PDGFaa (Platelet derived growth factor a) at 50 ng/ml, PDGFbb (platelet derive growth factor b) at 30 ng/ml, Ang2 (Angiopoeitin 2) at 400 ng/ml, amphiregulin at 100 ng/ml, HMGB 1 (Human high-mobility group box 1 protein) at 50 ng/ml; [2] From Genscript, LIF (Leukemia inhibitory factor) at 20 ng/ml, GM-CSF (Granulocyte macrophage colony stimulating factor) at 25 ng/ml, M-CSF (Macrophage colony stimulating factor) at 50 ng/ml; [3] From Anaspec, PAR1 (Protease activated receptor 1 agonist) at 100 μM; PAR2 (Protease activated receptor 2 agonist; peptide SLIGKV-NH2, Cat. No. 60217-1) at 100 μM; PAR4 (Protease activated receptor […] agonist; peptide AYPGKF-NH2, Cat. No. 60218-1) at 100 μM; [4] From Peprotech, HGF (Hepatocyte Growth Factor) at 100 ng/ml; IL-31 (Interleukin-31) at 50 ng/ml, IL-33 (Interleukin-33) at 50 ng/ml, IL1-a (Interleukin-1 alpha) at 10 ng/ml, CTGF (Connective tissue growth factor) at 20 ng/ml, WISP1 (Wnt-1 inducible signaling pathway protein) at 20 ng/ml, PTHrP ([…] hormone-related protein) at 50 ng/ml, MCP1 (monocyte chemotactic protein-1) at 50 ng/ml; and [5] from Sigma, Fulvestrant at 1 μM. Fresh medium containing ligand and/or inhibitor was added 3-4 days after initial dose, and at Day 7 cells were harvested for western blot analysis.
# Cells were harvested by washing once with PBS, and lysing on ice for 10 minutes with scraping (using a Cell Lifter, Corning Inc. #3008) in ice cold RIPA buffer (Sigma R0278) containing Protease inhibitor (Sigma P8340), Phosphatase inhibitors (Sigma P2850, P5726) and 200 μM Sodium Vanadate. Supernatents were micro-centrifuged at max speed, 4° C. for 10 minutes. Protein content was quantitated using the BCA method (Pierce #23225) and samples were normalized to total protein in Laemli buffer and heated at 100° C. for 10 minutes. SDS PAGE was run using a Bis-Tris gel system (Invitrogen NuPAGE) with MOPS buffer (Invitrogen NP0001), transferred onto nitrocellulose using the iBLOT system (Invitrogen) and blocked in PBS-T (0.1% Tween 20), 5% non-fat milk or BSA in guidance with primary Ab supplier requirements. All primary antibodies were incubated overnight at 4° C. in PBS-T (0.1% Tween 20) in either 5% non-fat milk or BSA, diluted to the following working dilutions: anti E Cadherin (Santa Cruz #sc-21791) 1:500 dilution; anti Vimentin (BD Biosciences #550513) 1:2000 dilution;); anti GAPDH HRP conjugate (Santa Cruz sc-25778) 1:1000 dilution; anti β-Actin (Sigma, A5441) 1:10,000 dilution. […]
row,Molecule,"Induction of EMT (E-cadherin down, vimentin up)"
1,"IL-33: Interleukin-33, Peprotech, 50 ng/ml (protein, UniProt O95760 1-270, looked up) Interleukin-33: MKPKMKYSTNKISTAKWKNTASKALCFKLGKSQQKAKEVCPMYFMKLRSGLMIKKEACYFRRETTKRPSLKTGRKHKRHLVLAACQQQSTVECFAFGISGVQKYTRALHDSSITGISPITEYLASLSTYNDQSITFALEDESYEIYVEDLKKDEKKDKVLLSYYESQHPSNESGDGVDGKMLMVTLSPTKDFWLHANNKEHSVELHKCEKPLPDQAFFVLHNMHSNCVSFECKTDPGVFIGVKDNHLALIKVDSSENLCTENILFKLSET",Partial EMT
2,"CTGF: Connective tissue growth factor, Peprotech, 20 ng/ml (protein, UniProt P29279 27-349, looked up) CCN family member 2: QNCSGPCRCPDEPAPRCPAGVSLVLDGCGCCRVCAKQLGELCTERDPCDPHKGLFCHFGSPANRKIGVCTAKDGAPCIFGGTVYRSGESFQSSCKYQCTCLDGAVGCMPLCSMDVRLPSPDCPFPRRVKLPGKCCEEWVCDEPKDQTVVGPALAAYRLEDTFGPDPTMIRANCLVQTTEWSACSKTCGMGISTRVTNDNASCRLEKQSRLCMVRPCEADLEENIKKGKKCIRTPKISKPIKFELSGCTSMKTYRAKFCGVCTDGRCCTPHRTTTLPVEFKCPDGEVMKKNMMFIKTCACHYNCPGDNDIFESLYYRKMYGDMA",Partial EMT
3,"BMP7: bone morphogenetic protein 7, R&D systems, 100 ng/ml (protein, UniProt P18075 293-431, looked up) Bone morphogenetic protein 7: STGSKQRSQNRSKTPKNQEALRMANVAENSSSDQRQACKKHELYVSFRDLGWQDWIIAPEGYAAYYCEGECAFPLNSYMNATNHAIVQTLVHFINPETVPKPCCAPTQLNAISVLYFDDSSNVILKKYRNMVVRACGCH",Partial EMT
4,"BMP4: bone morphogenetic protein 4, R&D systems, 100 ng/ml (protein, UniProt P12644 293-408, looked up) Bone morphogenetic protein 4: SPKHHSQRARKKNKNCRRHSLYVDFSDVGWNDWIVAPPGYQAFYCHGDCPFPLADHLNSTNHAIVQTLVNSVNSSIPKACCVPTELSAISMLYLDEYDKVVLKNYQEMVVEGCGCR",Partial EMT
